For the experiment, the target named is GFP-tagged mProVII chains (in the FRET assay) (mouse). In words: FRET or BRET.

As for “RFP-tagged wild type mouse mini-procollagen VII α chain (domain or fragment)”, the FRET efficiency EF stood at 5.83%.

The record behind these values is PMC2796180.
